# B1: Forkhead box protein O3 (Homo sapiens), O43524 (parent)
# chain: MAEAPASPAPLSPLEVELDPEFEPQSRPRSCTWPLQRPELQASPAKPSGETAADSMIPEEEDDEDDEDGGGRAGSAMAIGGGGGSGTLGSGLLLEDSARVLAPGGQDPGSGPATAAGGLSGGTQALLQPQQPLPPPQPGAAGGSGQPRKCSSRRNAWGNLSYADLITRAIESSPDKRLTLSQIYEWMVRCVPYFKDKGDSNSSAGWKNSIRHNLSLHSRFMRVQNEGTGKSSWWIINPDGGKSGKAPRRRAVSMDNSNKYTKSRGRAAKKKAALQTAPESADDSPSQLSKWPGSPTSRSSDELDAWTDFRSRTNSNASTVSGRLSPIMASTELDEVQDDDAPLSPMLYSSSASLSPSVSKPCTVELPRLTDMAGTMNLNDGLTENLMDDLLDNITLPPSQPSPTGGLMQRSSSFPYTTKGSGLGSPTSSFNSTVFGPSSLNSLRQSPMQTIQENKPATFSSMSHYGNQTLQDLLTSDSLSHSDVMMTQSDPLMSQASTAVSAQNSRRNVMLRNDPMMSFAAQPNQGSLVNQNLLHHQHQTQGALGGSRALSNSVSNMGLSESSSLGSAKHQQQSPVSQSMQTLSDSLSGSSLYSTSANLPVMGHEKFPSDLDLDMFNGSLECDMESIIRSELMDADGLDFNFDSLISTQNVVGLNVGNFTGAKQASSQSWVPG
# Variants of: B1
# Details: with 1433z_human YWHAZ
row,Variant,effect of a mutation on the interaction
1,T32A,decreasing interaction strength
2,T32A;S253A,disrupting interaction strength

# Results, then the variant that gave them:
row,effect of a mutation on the interaction,Variant
1,with no effect,S315A
2,decreasing interaction strength,S253A

# Variants of: B1
# Details: with akt1_human AKT1, P31749
# Chain of akt1_human AKT1, P31749 (P31749 whole entry): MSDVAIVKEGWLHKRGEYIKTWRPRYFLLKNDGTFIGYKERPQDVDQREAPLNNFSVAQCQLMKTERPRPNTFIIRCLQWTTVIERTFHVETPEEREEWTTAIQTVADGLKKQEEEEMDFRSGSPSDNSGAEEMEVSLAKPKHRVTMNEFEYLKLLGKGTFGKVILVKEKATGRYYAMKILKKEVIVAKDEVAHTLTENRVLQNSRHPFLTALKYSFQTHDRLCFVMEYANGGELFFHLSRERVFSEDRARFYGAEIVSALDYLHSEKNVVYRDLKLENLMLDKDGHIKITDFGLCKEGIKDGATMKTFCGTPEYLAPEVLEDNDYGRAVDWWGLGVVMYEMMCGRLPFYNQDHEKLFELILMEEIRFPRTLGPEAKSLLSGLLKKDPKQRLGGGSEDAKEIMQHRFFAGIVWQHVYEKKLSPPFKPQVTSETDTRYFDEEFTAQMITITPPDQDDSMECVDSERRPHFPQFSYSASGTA
row,effect of a mutation on the interaction,Variant
1,with no effect,S315A

# From IntAct's records for PubMed 10102273
